{
  "source": "patent US8030017B2",
  "about": "“Thermostable luciferases and methods of production” (Promega Corporation, priority 1997, dated 2011)",
  "molecules": {"B1": {"name": "Luc90-1B5: mutant luciferase, SEQ ID NO:24 (protein)", "chain": "MADKNILYGPEPFYPLEDGTAGEQMFDALSRYADIPGCIALTNAHTKENVLYEEFLKLSCRLAESFKKYGLKQNDTIAVCSENGLQFFLPVIASLYLGIIVAPVNDKYIERELIHSLGIVKPRIVFCSKNTFQKVLNVKSKLKSIETIIILDLNEDLGGYQCLNNFISQNSDSNLDVKKFKPYSFNRDDQVALIMFSSGTTGLPKGVMLTHKNIVARFSLAKDPTFGNAINPTTAILTVIPFHHGFGMMTTLGYFTCGFRVVLMHTFEEKLFLQSLQDYKVESTLLVPTLMAFLAKSALVEKYDLSHLKEIASGGAPLSKEIGEMVKKRFKLNFVRQGYGLTETTSAVLITPKGDAKPGSTGKIVPFHAVKVVDPTTGKILGPNEPGELYFKGPMIMKGYYNNEEATKAIIDNDGWLRSGDIAYYDNDGHFYIVDRLKSLIKYKGYQVAPAEIEGILLQHPYIVDAGVTGIPDEAAGELPAAGVVVQTGKYLNEQIVQDYVASQVSTAKWLRGGVKFLDEIPKGSTGKIDRKVLRQMFEKHTNG", "modifications": "Mutant luciferase"}},
  "key": {"[1]": {"assay": "Robotic quantitative screen of E. coli lysates: luminescence activity (Li), expression/specific activity", "type": "biochemical", "details": "relative value; Control is Luc85-4F12 at 65° C. (=1)", "procedure": "A plate containing cells is retrieved from the carousel and placed on the shaker for 3-5 minutes to fully mix the cells. The cells tend to settle from solution upon standing.\nTo measure Optical Density (O.D.), the plate is moved from the shaker to the locator near the luminometer; the lid is removed and the plate placed into the luminometer. The O.D. is measured using a 620 nm filter.\nTo prepare a cell lysate, the plate of cells is first retrieved from the refrigerator and mixed on the shaker to resuspend the cells. A new plate from the carousel without a lid is placed in the reagent dispenser and 20 μl of Buffer A is added to each well. This is placed in the pipetting station.\nThe plate is then moved to the reagent dispenser to add 175 μl of Buffer B, and then mixed on the shaker for about 15 minutes or more. The combination of the freeze/thaw and Buffer B will cause the cells to lyse.\n(§1) One daughter plate is placed in the luminometer and the 1X assay method is used. After the assay, the plate is placed in the ambient incubator, and the second daughter plate is placed in the luminometer. For the second plate, the 0.02X assay method is used. This plate is discarded, and the first plate is returned from the incubator to the luminometer. The repeat assay method is used (i.e., no reagent is injected). Afterwards, the plate is again returned to the ambient incubator.\n1X Assay reagent: 5 μM Luciferin; 175 μM ATP; 20 mM Tricine, pH 8.0; 0.1 mM EDTA\n(§2) The following criteria were used for screening purposes. The temperature chosen for the enzyme stability parameter was such that the parent enzyme would decay 100 to 1000 fold over 10 hours (see Table 1). Criteria 1 is achieved manually; data for criteria 2-6 is generated by robotic analysis. For all criteria, the maximum value as described is selected. • 1. In vivo screen. The brightest clones are selected at a given temperature. • 2. Expression/specific activity. The value for normalized luminescence is calculated as the ratio of luminescence to optical density. The value is reported as the ratio with the reference value. • 3. Enzyme stability. Measurements of normalized luminescence of the incubated samples (3 taken over about 15 hours) are fitted to In(L)=In(L0)−(t/τ), where L is normalized luminescence and t is time. τ is a measure of the enzyme stability. The value is reported as the ratio with the reference value, and the correlation coefficients are calculated. • 4. Substrate binding. Measurements of normalized luminescence with 1X and 0.02X are taken at the initial reading set, and 1X and 0.06X are taken at the 5 hour set. The ratio of the 0.02X:1X and 0.06X:1X gives the relative luminescence at 0.02X and 0.06X concentrations. These values, along with the relative luminescence at 1X (i.e., 1), are fitted to a Lineweaver-Burk plot to yield the Km:app,total for the substrates ATP, luciferin, and CoA. The values are reported as the inverse ratio with the reference value, and the correlation coefficients are calculated. • 5. Signal stability. The luminescence of the initial IX luminescent reactions are re-measured 3 additional times over about 15 hours. These values are fitted to In(L)=In(L0)−(t/τ) and the integral over t (15 hours) is calculated. Signal stability is then calculated as S=(1−int(L)/L0t)^2. The values are reported as the inverse ratio with the reference value, and the correlation coefficients are calculated. • 6. Composite fitness. The values of criteria 2 through 5 are combined into a single composite value of fitness (or commercial utility). This value is based on a judgment of the relative importance of the other criteria. This judgment is given below:\nNormalize luminescence data: For each measurement of luminescence in the eight daughter plates, the normalized luminescence is calculated by dividing the relative light units by the optical density of the original plate. […]"}, "[2]": {"assay": "Robotic quantitative screen of E. coli lysates: enzyme stability (tau) at elevated temperature", "type": "physicochemical", "details": "relative value; Control is Luc85-4F12 at 65° C. (=1)", "procedure": "Two white assay plates (Labsystems #9502887) are obtained from the plate feeder and placed in the pipetter. The incubation plate from the shaker is placed in the pipetter, and the lid removed and placed on the nearby locator. Two daughter plates are made using the pipetting procedure (see “Create Pair of Daughter Plates from Incubation Plate”). Afterwards, the lid is replaced on the parent plate, and the plate is placed in a high temperature incubator. [ranging from 31° C. to about 65° C. depending on the clone.]\nTo begin the second set of measurements, the plate from the high temperature incubator is placed in the shaker to mix.\nIn the final set of measurements, the plate from the high temperature incubator is again placed in the shaker to mix.\nas §2\nCalculate enzyme stability (τ): For each sample, use linear regression to fit In(L1x)=In(L0)−(t/τ) using the three luminescence measurements with 1X substrate concentrations (Plates 1, 5, 8). Also calculate the regression coefficient.\nCalculate the reference-normalized values: For the criteria parameter of each sample, a reference-normalized value is determined by calculating the ratio or inverse ratio with the respective reference value. The reference-normalized values are Li/Lir, τ/τr, Kmr/Km:app,total, and Sr/S, where reference values are calculated from the equations of the appropriate reference surface.\n“Enzyme stability” was determined by the rate of activity loss from cell lysates over 10 hours. In successive rounds of evolution the incubation temperature of the lysates was increased.\nRobotic Automation: Robotic automation was used in the quantitative screens to accurately perform the large number of required quantitative assays on the cultured cells. […]"}, "[3]": {"assay": "Robotic quantitative screen of E. coli lysates: signal stability (S), sustained enzymatic turnover", "type": "biochemical", "details": "inverse ratio with reference; Control is Luc85-4F12 at 65° C. (=1)", "procedure": "as §1\nThe plate in the ambient incubator is returned to the luminometer and the repeat assay method is again used. The plate is returned afterwards to the ambient incubator.\nThe plate in the ambient incubator is returned to the luminometer and the repeat assay method is again used. The plate is discarded afterwards.\nas §2\nCalculate signal stability (S): For each sample, use linear regression to fit In(L)=In(L0)[…] using the four luminescence measurements of the initial microplate with 1X substrate concentrations (Plates 1, 3, 4, and 7). Also calculate the regression coefficient. From the calculated values of T and L0, calculate the integral of luminescence by int(L)=τL0(1−exp(−tf/τ)), where tf is the average time of the last measurement (e.g., 15 hours). The signal stability is calculated as S=(1−int(L)/Litf)^2, where Li is the initial measurement of normalized luminescence with 1× substrate concentration (Plate 1).\n[Note: To correct for evaporation, an equation S=(1+K−int(L)/Litf)^2, may be used where 1/K=2(relative change of liquid volume at tf).]\nCalculate the reference-normalized values: For the criteria parameter of each sample, a reference-normalized value is determined by calculating the ratio or inverse ratio with the respective reference value. […]"}, "[4]": {"assay": "Michaelis-Menten constant for ATP of purified mutants", "type": "biochemical", "details": "purified enzyme", "source_text": "Substrate binding was screened by measuring an apparent composite Km (see Example 2) for luciferin and ATP. […] The Km for luciferin rose while the Km for ATP declined (Table 3). The reason for this change is unknown, although it can be speculated that more efficient release of oxyluciferin or luciferin inhibitors could lead to more rapid enzyme turnover.\nProtein purification: Four mutants that are described herein (Luc[T249M], Luc49-7C6, Luc78-0B10, and Luc90-1B5) were purified using a previously published procedure (Hastings et al., 1996)."}},
  "data": [
    {"molecule": "B1", "values": [
      {"measurement": "Luminescence (Li)", "setting": "[1]", "value": 1.4743},
      {"measurement": "Enzyme stability (tau)", "setting": "[2]", "value": 1.1154},
      {"measurement": "Signal stability (S)", "setting": "[3]", "value": 1.0011},
      {"measurement": "Km", "setting": "[4]", "value": 3, "unit": "µM"}
    ]}
  ]
}
